Source: the supplement of paper PMC10567573
± gives the standard deviation.

Test: protein stability index of a GFP-peptide fusion (GPS, HEK-293T) (PSI 1-6); higher = more stable
[1] = treatment: DMSO, c terminus: a fixed tail appended
[2] = treatment: MLN4924 1 uM, 8 h, c terminus: a fixed tail appended
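Further: 24-mer peptide tiles fused after GFP, lentivirally expressed, FACS-sorted into six equal bins by GFP/DsRed ratio, decoded by Illumina sequencing, PSI is the read-weighted mean bin number.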

Sequence	protein stability index [1]	protein stability index [2]	protein stability index (treatment: DMSO, c terminus: native)	protein stability index (treatment: MLN4924 1 uM, 8 h, c terminus: native)
IMNFIDIVAIIPYFITLGTEIAEQ [KCNA1]	3.2 ± 0.41	2.89 ± 0.15	–	–
HPGSGTKVQFNLQFTKPNASLGDV [SASS6]	3.17 ± 0.44	3.23 ± 0.23	–	–
TMAQHAEVLVKSNNLTDRIVVIPG [CARM1]	3.08 ± 0.22	3.36 ± 0.23	–	–
FPSTSYNARLQAMWGQSLLPPVST [TNXB]	2.36 ± 0.32	2.51 ± 0.35	–	–
LSLESEGAGEGAAASPELSALEEA [TPPP]	5.52 ± 0.17	5.58 ± 0.17	–	–
AGINTHSNEFKESALTLACYKGHL [ANKRD17]	2.76 ± 0.19	2.86 ± 0.47	–	–
IPLDLGCTQVTQDGDIPNIPAEEN [FAM189A2]	5.48 ± 0.12	5.48 ± 0.18	–	–
LKLYEQWKNFDERKEMATILSKMP [CCNC]	2.61 ± 0.59	2.62 ± 0.41	–	–
LSAVPEEGDATRDPGPEPEEEPGV [PSD2]	5.77 ± 0.25	5.48 ± 0.49	–	–
RHNALLSKRLLALTSSDLGCQPSR [TMEM192]	2.97 ± 0.13	3.14 ± 0.38	–	–
DDVIVQGDIQELYDTTLALGHAAA [GLT8D2]	4.47 ± 0.39	4.42 ± 0.088	–	–
PRMNEVYTRLGEMNNAVRNLQELL [CEP70]	3.78 ± 0.18	3.86 ± 0.23	–	–
EKSVLKEVSHPFLIRLFWTWHDER [PRKX]	2.56 ± 0.29	2 ± 0.32	–	–
ESESPQSHRAAGSGVSDYDYLDLD [TRIM9]	5.5 ± 0.19	5.35 ± 0.2	–	–
NKKNILLRLLREEEYVAPPRGPLP [TRAF3IP2]	2.44 ± 0.25	3.06 ± 0.54	–	–
QAKQEMNESRRQIQSLTCEVDGLR [PRPH]	4.55 ± 0.37	4.78 ± 0.18	–	–
AVLGGFLYAVGGQDGVSCLNIVER [KLHL20]	2.16 ± 0.45	2.55 ± 0.47	–	–
HSRRHESYSRGYSYHDGYGEALGR [RBMY1A1]	3.14 ± 0.3	3.24 ± 0.36	–	–
AYAHPQQKVAVYRALQAALAESGG [TRADD]	2.43 ± 0.51	2.65 ± 0.34	–	–
SPSEKNSSFTWSVPSSGYGAVTAS [SMTNL2]	3.65 ± 0.18	3.74 ± 0.073	–	–
HRRGLGVDSKPELQRVLEHRRRNQ [FAM107A]	4.01 ± 0.4	4.11 ± 0.31	–	–
QPPEESQPPQSQAQVPPAAPHHHH [PLK2]	5.41 ± 0.11	5.43 ± 0.18	–	–
CKNSNTVYCKLESCPSRGQGKPS [SPRY1]	–	–	3.789 ± 0.011	3.97 ± 0.22

Sequence	protein stability index [1]	protein stability index [2]	protein stability index (treatment: DMSO, c terminus: native)	protein stability index (treatment: MLN4924 1 uM, 8 h, c terminus: native)
WVGTGLAAALAGLVGLATAAFGHV [CPOX]	2.13 ± 0.37	2.16 ± 0.3	–	–
ILSGKFTILNVRDPTGASIALFTA [PTPN9]	2.84 ± 0.73	3.19 ± 0.74	–	–
HVNFSHLTTKDYMEMYNVIMTVKE [SLC6A17]	2.41 ± 0.32	2.44 ± 0.52	–	–
KWMLGAEDLTPEDDMPIGRNVLEL [PTPRD]	3.9 ± 0.12	3.92 ± 0.44	–	–
SGNMLGRHFFTSWASCLQYDFDTQ [WDFY1]	2.47 ± 0.53	2.11 ± 0.12	–	–
APSLRRHVLIHNTLQQLQAALRLA [SERTAD3]	2.21 ± 0.33	2.29 ± 0.13	–	–
SIIAVAMQRGARLPAEVAGLSQVL [POMT2]	2.35 ± 0.59	2.01 ± 0.18	–	–
FQAHRDKYEKLRGDVAIKLKFLEE [ARFIP2]	2.89 ± 0.45	3.15 ± 0.25	–	–
DFALHYCLHHVHYLATEYLETHFR [GAN]	3.08 ± 0.24	3.11 ± 0.23	–	–
IVDFLTHHAQTSKTERINALELLG [FEM1C]	2.09 ± 0.14	2.18 ± 0.23	–	–
GLQDTITAELVVIEDAAEPKEPAP [PALM]	5.06 ± 0.19	5.1 ± 0.18	–	–
ILNFNDLMSSAVPMTPEDPSFWDC [AASDHPPT]	2.71 ± 0.31	2.92 ± 0.2	–	–
TGRHYWEVDVQEAGAGWWVGAAYA [TRIM14]	2.62 ± 0.8	2.58 ± 0.82	–	–
IVRFSGQSRGVPAVSESYSAPGAC [FBXO34]	3.15 ± 0.34	3.36 ± 0.38	–	–
AAAFSQCEEWSFFHAYYYCFITLT [KCNK9]	3.33 ± 0.51	3.23 ± 0.49	–	–
RHLERKAWVANFERPRMNANSLLA [CRY1]	2.49 ± 0.27	3.1 ± 0.15	–	–
KKVHKGTVPKNDADDESETPEELE [GLT8D2]	5.49 ± 0.27	5.65 ± 0.093	–	–
RFRSCNTEDCPTGSALTFREEQCA [ADAMTS4]	3.75 ± 0.3	4.24 ± 0.27	–	–
NVEHYQELKKMVQQSDLGQYVTFL [ALG2]	2.27 ± 0.12	2.43 ± 0.27	–	–
DKPLMPYMRYSRKVWDQVKASNPD [SMARCE1]	3.27 ± 0.53	3.44 ± 0.17	–	–
KRAPGEETEKEEEEEDREEEDENG [NEUROD6]	5.6 ± 0.34	5.69 ± 0.43	–	–
QHLKSKALRERWLLEGTPSSASEG [PALM]	4.25 ± 0.13	4.33 ± 0.2	–	–
FWDFAQGPLLDSLYWTKWYNNQSL [PKD2L1]	2.3 ± 0.77	2.76 ± 0.94	–	–

Sequence	protein stability index [1]	protein stability index [2]	protein stability index (treatment: DMSO, c terminus: native)	protein stability index (treatment: MLN4924 1 uM, 8 h, c terminus: native)
PSPDMECADVPLLTPSSKEMMSQA [ETS1]	5.15 ± 0.25	5.2 ± 0.11	–	–
GELLLDVAWHPVRPIIASISSGVV [RBBP5]	2.3 ± 0.54	2.42 ± 0.59	–	–
GIEHAQCVPPSEFSEPSFITESYQ [ETS1]	4.44 ± 0.12	4.15 ± 0.3	–	–
LASRNPCPWHYLHLSGSHNTLAPT [RSPH3]	2.41 ± 0.14	2.45 ± 0.16	–	–
FAFSNGYLASLCMCFGPKKVKPAE [SLC29A1]	2 ± 0.36	2.34 ± 0.21	–	–
KYPPDRECIYIIEAAPRQCIELYF [NETO1]	3.13 ± 0.77	2.7 ± 1.3	–	–
TEMELLEVSQHIKMRMGGRVDFEE [CABP4]	4.11 ± 0.25	4.08 ± 0.099	–	–
QQVKKLEKALKKNVKLQELINHKK [CEP70]	2.6 ± 0.28	2.67 ± 0.41	–	–
IDNANRILGPAYFVTYVFFVFFVL [PKD2L1]	2.67 ± 0.71	2.67 ± 0.6	–	–
GEKPFECRQRLIFEQTPALTKHEW [ZNF8]	3.04 ± 0.85	2.93 ± 0.18	–	–
GNSRSAPPTRGPPPSYGGSSRYDD [RBMX]	4.94 ± 0.34	5.05 ± 0.15	–	–
MATITCTRFTEEYQLFEELGKGAF [CAMK2A]	2.35 ± 0.23	2.44 ± 0.4	–	–
GVLDALHVLEGLFRTDPEAKVKLV [ZSWIM9]	2.28 ± 0.23	2.25 ± 0.18	–	–
LTHFSRRYCQCNPDDSTSEDGIHT [PSD2]	3.6 ± 0.27	3.77 ± 0.3	–	–
FIEGYCTPEEVIWEALNMMGLYDG [MAGEA10]	2.48 ± 0.24	2.17 ± 0.26	–	–
LIALLTWGYIRYSGQYRELGGAID [ATL3]	3.4 ± 0.13	3.52 ± 0.17	–	–
GCSAVLSGGSSSSFRAGSKGLSGG [KRT71]	3.45 ± 0.14	3.48 ± 0.2	–	–
DGKLRLLTKLLASKSKEEVSSLIS [FEM1C]	2.33 ± 0.28	1.92 ± 0.39	–	–
IRLGIEGYPTYKEKVKKRPGGRPE [BTBD10]	3.41 ± 0.54	3.42 ± 0.41	–	–
EQLSVLASCLQELFKAHFRGEVLP [INTS3]	2.52 ± 0.42	2.5 ± 1.1	–	–
EKNKHIFPASRWEPYDPEKKWDKY [FAM50A]	3.52 ± 0.2	3.6 ± 0.14	–	–
VKYPELVLEHSLDREEEAIHHLVL [PCDHGA10]	2.6 ± 0.096	2.63 ± 0.36	–	–
AIHSSDEDEDEDDEEDFEDDDEWE [WASL]	4.48 ± 0.26	4.49 ± 0.27	–	–

Sequence	protein stability index [1]	protein stability index [2]	protein stability index (treatment: DMSO, c terminus: native)	protein stability index (treatment: MLN4924 1 uM, 8 h, c terminus: native)
SLASQVHAAAVNGDKGALQRLIVG [INVS]	3.02 ± 0.22	3.19 ± 0.29	–	–
DAPLHSVGYTTLVGNNHESWGWDL [SPSB1]	2.9 ± 0.16	2.85 ± 0.25	–	–
FCQTDQTCICYLCMFQEHKNHSTV [TRIM29]	2.2 ± 0.085	2.66 ± 0.32	–	–
TVLTRHSQPATPTPLQSRTSIVQA [PDLIM7]	3.77 ± 0.093	3.8 ± 0.28	–	–
ILSGARVNAKDNMWLTPLHRAVAS [ANKRD44]	2.34 ± 0.1	2.4 ± 0.27	–	–
TQCSEEDQCKINKQIYNLIHLDPR [FEM1B]	3.48 ± 0.12	3.4 ± 0.28	–	–
KVTISNRLVSSPCCIVTSTYGWTA [HSP90AB1]	2.84 ± 0.9	2.51 ± 0.37	–	–
RAGKMLMTLPLLRQTSTKAVQHFY [ESRRG]	2.28 ± 0.31	2.16 ± 0.37	–	–
TFKSLSHIDPDVLYPSLNVTSFDS [ALG2]	2.77 ± 0.14	2.92 ± 0.19	–	–
GHLFPPPTPIFAGGANDRWVRSVS [WSB1]	2.66 ± 0.18	2.39 ± 0.4	–	–
EFLTKHLRADNAFMLLTQARLFDE [BTBD1]	2.54 ± 0.25	2.18 ± 0.36	–	–
IDEHHFVAVALRKPDGSRHQDVPS [AASDHPPT]	4 ± 0.17	4.07 ± 0.19	–	–
GAHKDCQVAPLTHVFQRQKSELSD [TRIM55]	4.73 ± 0.34	4.83 ± 0.16	–	–
ALVYSITAQSTFNDLQDLREQILR [RAP1B]	2.27 ± 0.33	2.42 ± 0.4	–	–
YVVLAYTLPPASRFIIIFEQIRFV [SOAT1]	3.27 ± 0.48	2.93 ± 0.53	–	–
IQPGPFRAVLKYLYTGELDENERD [RHOBTB2]	3.37 ± 0.53	3.43 ± 0.25	–	–
QALLIRERILGPSHPDTSYYIRYR [FEM1A]	2.31 ± 0.2	2.56 ± 0.33	–	–
DFYRCGYCKNESGSRSNGMWAHSM [ATE1]	2.56 ± 0.59	2.2 ± 0.13	–	–
KAGIEQEGYWLPGDEISIKKKNTN [ZMYND11]	4.5 ± 0.3	4.62 ± 0.35	–	–
SIQMNVAEVSWEPGRREGCDICAG [RPS21]	2.7 ± 0.92	3.35 ± 1.3	–	–
